Measurements as given in patent US20260224446A1, “BIFUNCTIONAL PEPTIDES USEFUL FOR COLLAGEN INTRAFIBRILLAR MINERALIZATION” (University of Kansas, priority 2023, published 2026).
Several values for one entry are separate records, joined by “and”; a condition that tells them apart may be missing. Equal entries are not always repeated. No end group written: not given here.

What was measured:
[1] = ALP-driven mineralization of adhesive/dentin specimen with HABP1, RAMAN imaging with Divisive Clustering Analysis; assay type: biochemical, human; conditions: for MNRp 960/1460: RAMAN peak ratio; for FMHW PO4^−3): RAMAN, after ALP-driven mineralization; for GMC 1078/960: carbonate to phosphate peak ratio; for Ca-P/collagen 960/1667: phosphate to amide I peak ratio
Experimental: (§1) ALP-driven mineralization was executed following the protocol discussed in Gungormus et al. (2008). The mineralization buffer prepared was composed of 24.4 Ca^2+ mM and 14.4 mM B-glycerophosphate made in 25 mM Tris-HCl buffer at pH 7.4, and 200 μL/well was added to a 24-well plate. Collagen-peptide samples were placed gently within the well to lay flat at the bottom. The mineralization reaction was initiated by adding FastAP (thermosensitive alkaline phosphatase), 1.4×10^−6 g/mL, and left to incubate at 37° C. for 20 min. The samples were then removed from the wells, gently rinsed in sterile-filtered water, and left to air dry overnight. Throughout this process the samples were handled in a horizontally flat manner to prevent disturbing the peptide-functionalized collagen layer on the surface of the substrate.
Demineralized dentin samples, adhesive/dentin samples (pre/post mineralization), and SC collagen on glass were imaged using a LabRAM ARAMIS Raman microscope (HORIBA Jobin Yvon, Edison, NJ, USA), equipped with a HeNe laser (2=[…], laser power=17 mW). Light micrograph images were taken using a 50× long working distance objective Olympus lens. The samples spectra were evaluated over a wavelength range of 300 cm^−1 to 1800 cm^−1 with a 15 s spectra acquisition time of 4 acquisitions per cycle and processed using LabSPEC 6 software (HORIBA Jobin Yvon, Edison, NJ, USA). Divisive Clustering Analysis (DCA) was used to classify and group respective spectra. This multivariate analysis method was integrated into the LabSPEC 6 analysis software as a Multivariate Analysis (MVA) module (powered by Eigenvector Research Inc., HORIBA Jobin Yvon, NJ, USA). A rectangular area of the surface was imaged and submitted to this multivariate analysis where a statistical pattern determined derived independent clusters to present chemically distinct regions. Average spectra are calculated per cluster which were used to provide information on particular peak parameters and component distribution in the resulting spectra. These components were analyzed for relative degree of mineralization via mineral-to-matrix ratio (MMR), inferred from the ratio of peak intensities at 960 cm^−1 (phosphate) and 1460 cm^−1 (CH2 bending), crystallinity via full width at half maximum (FWHM) from the v1 phosphate band (960 cm^−1), and the carbonate content of mineral crystallites via gradient in mineral content (GMC), based on ratio of relative carbonate (10^70 cm^−1) and phosphate (960 cm^−1) peak heights. The calcium-phosphate (Ca/P) to collagen ratio was also assessed to understand the relative thickness of the mineral formed during mineralization. This would help in comparative evaluations between the samples.
Next evaluated was the use of HABP1 to potentially direct mineralization within the adhesive/demineralized dentin hybrid layer. To do this RAMAN Divisive Clustering Analysis (DCA) was used, a hierarchical k-means clustering method which is useful for identifying the internal structure of multi-layer datasets. We mapped the most distinctive mineral composition variations associated with the collagen matrix structural variations according to their RAMAN spectra. […] The DCA method measures similarity in three parameters: ratio of 960/1460 peak (e.g., mineral-to-matrix ratio), ratio of 1078/960 (gradient mineral carbonation, GMC: carbonate to phosphate) peak, and ratio of the 960/1667 peaks (phosphate to collagen with retained amide I structure, Ca/P collagen). The spectral feature at 1460 cm^−1 is assigned to the CH2 wag for collagen, and 1667 cm^−1 is the amide I peak for the collagen used. The 960 cm^−1 peak is the v1 phosphate stretching vibration associated with the mineral and 10^78 cm^−1 is the band for v1 carbonate. The method clusters the following groups: collagen only, mineral group I, and mineral group II. […]

Type 1 rat tail collagen [2] = biological target: T1, Type 1 rat tail collagen (Rattus norvegicus, UniProt P02454+P02466); assay: Collagen fibril self-assembly with incorporated peptide, AFM topography fibril widths; conditions: peptide co-assembled with collagen (50 nanomoles in 1 mL of 3 mg/mL), drop-cast on mica
T1 construct: Collagen Type 1 solution from rat tail (3 mg/mL, C3867, 95%) was purchased from Sigma-Aldrich; purchased Sigma-Aldrich C3867; host or cells: rat tail (tissue-derived)
Experimental: (§2) Grade V1 round mica, 0.21 mm thick and 12 mm in diameter, was used as the substrate surface and mounted onto a 12 mm atomic force microscopy specimen disc using STKYDOT adhesive. In 1 mL of 3 mg/mL Type 1 rat tail collagen suspension, 50 nanomoles of peptide were added. The ratio of mass collagen to mass peptide ranged from 100 wt collagen: 1 wt peptide for single domains to 100 wt collagen: 3 wt peptide for the chimeric peptide. Once peptide was dissolved and gently mixed in the collagen suspension, 150 μL was drop-cast onto the substrate surface and left to self-assemble at 4° C. for 16 h.
(§3) A Bruker Multimode 8 HR scanning probe microscope (Bruker Nano Inc., Camarillo, CA, USA) was operated in peak force tapping mode with the capability of Quantitative Nanomechanics (PeakForce-QNM) in air mode conditions (24±2° C., 40%±5% RH). This advanced testing mode was used to examine the topographical and nanomechanical property changes of the collagen-peptide samples both before and after mineralization. Tapping mode etched silicon probes, type RTESPA 525-30 (Bruker Nano Inc., Camarillo, CA, USA) with a resonant frequency of about 518 kHz, were used to acquire images (1 μm×3 μm and 5 μm×5 μm) at scan rate of 0.5 Hz with 512 pixel/line resolution. The images of the samples were recorded using NanoScope 8.15 software and analyzed using NanoScope Analysis 2.0 software (Bruker Nano Inc., Camarillo, CA, USA).
Building upon the conformational flexibility of the peptide, the CBP-HABP1 peptide was then studied for the assembly properties on the collagen fibrils on mica substrate using AFM topography image analysis. The images were acquired in tapping mode. Non-fibril features, indicated as intensity saturated regions on the surface, are acetic acid salt crystals from the evaporation of the solution in which the collagen was suspended. These features were excluded from image to prevent signal shadowing of the surface fibril assembly. […] Collagen+ (CBP-HABP1) fibrils were measured to be smaller than collagen-alone fibrils, resulting in a statistically significant difference. […]

Type 1 rat tail collagen [3] = biological target: T1, Type 1 rat tail collagen; assay: SEM/EDS of Ca-P deposits on peptide-incorporated collagen after ALP-driven mineralization; assay type: biochemical; conditions: for average Ca—P ratio: EDS, initial mineral on peptide-incorporated collagen after 20 min ALP-driven mineralization; for mineral formation morphology on SEM images: peptide-incorporated collagen after ALP-driven mineralization
Experimental: as §2, §1
In order to examine initial intrafibrillar mineral formation and morphology and determine Ca/P ratios precipitated on the peptide-functionalized collagen surface, a Cold Field Emission Scanning […] Microscope (SEM, S-4700 model, Hitachi High-Tech America, Schaumburg, IL, USA) equipped with a silicon drift energy-dispersive detector (EDS, X-max, Oxford Instruments, Concord, MA, USA) was used via the Microscopy and Analytical Imaging Research Resource Core Laboratory (RRID:SCR_021801). Collagen-peptide samples were sputter-coated with 3 nm gold using a Quorum sputter coating system (Q150, Quorum, Laughton, East Sussex, UK). SEM imaging was completed at an acceleration voltage of 10 kV at ultra-high resolution operating mode and EDS measurements were made at 10 kV under normal operating mode to preserve the integrity of the collagen-peptide layer and prevent burning during signal capture. EDS analysis was performed through AZtec software (X-MaxN, Oxford Instruments, Concord, MA, USA).
The composition and morphology of the Ca—P deposits formed on collagen samples were examined using scanning electron microscopy (SEM) with energy dispersive X-ray analysis (EDS). […] The EDS results validated the finding of Ca—P mineral isomorphs on the peptide-incorporated collagen platforms. The calcium/phosphate ratios were calculated to examine compositional differences. […] Whereas collagen+ (CBP) and collagen+ (CBP-HABP1) had comparatively lower average Ca—P ratios at 1.30 and 1.25, respectively. These values are similar to the molar ratio of octacalcium phosphate, which is around 1.33, and amorphous calcium phosphate (ACP), which is roughly 1.50 [54-57].

Type 1 rat tail collagen [4] = biological target: T1, Type 1 rat tail collagen; assay: PeakForce-QNM AFM modulus mapping of peptide-functionalized collagen pre/post ALP-driven mineralization; conditions: peptide incorporated into collagen
Experimental: as §2, §1, §3
Building on the observed effects of the chimeric peptide on the collagen, next examined was if there was a change on the mechanical properties of the collagen due to the peptide presence. Quantitative modulus mapping was executed via PeakForce-QNM AFM to observe the changes in the elastic modulus distribution on the surfaces. The elastic modulus was previously established to be derived by using the Derjaguin-Muller-Toropov (DMT) model, and is thus reported as the DMT modulus. […]

Type 1 rat tail collagen [5] = biological target: T1, Type 1 rat tail collagen; assay: MicroXCT imaging of mineral formed within peptide-incorporated collagen after ALP-driven mineralization; assay type: biochemical; conditions: MicroXCT shaded surface display, 20-min ALP-driven mineralization
Experimental: as §2
ALP-driven mineralization was executed following the protocol discussed in Gungormus et al. (2008). The mineralization buffer prepared was composed of 24.4 Ca^2+ mM and 14.4 mM B-glycerophosphate made in 25 mM Tris-HCl buffer at pH 7.4, and 200 μL/well was added to a 24-well plate. […]
The microscale structure of the mineral formed within the peptide-incorporated collagen platform as a physical indicator of intrafibrillar mineralization, was observed using 3D X-ray microcomputed tomography (MicroXCT-400, Xradia Inc., Pleasanton, CA, USA). […] The 3D images were reconstructed using the XM Reconstructor 8.0 software and were analyzed from an orthogonal view using a TXM 3D Viewer under the […] surface display (SSD) mode (Xradia Inc., Pleasanton, CA, USA). […]

[6] = biological target: Collagen Type 1 solution from rat tail (3 mg/mL, C3867, Sigma-Aldrich) (rat, UniProt P02454 152-1207; P02466 86-1125); assay: cell-based or functional assay
[7] = after 20 min ALP-driven mineralization

T1 sequence (P02466 86-1125 limits assumed): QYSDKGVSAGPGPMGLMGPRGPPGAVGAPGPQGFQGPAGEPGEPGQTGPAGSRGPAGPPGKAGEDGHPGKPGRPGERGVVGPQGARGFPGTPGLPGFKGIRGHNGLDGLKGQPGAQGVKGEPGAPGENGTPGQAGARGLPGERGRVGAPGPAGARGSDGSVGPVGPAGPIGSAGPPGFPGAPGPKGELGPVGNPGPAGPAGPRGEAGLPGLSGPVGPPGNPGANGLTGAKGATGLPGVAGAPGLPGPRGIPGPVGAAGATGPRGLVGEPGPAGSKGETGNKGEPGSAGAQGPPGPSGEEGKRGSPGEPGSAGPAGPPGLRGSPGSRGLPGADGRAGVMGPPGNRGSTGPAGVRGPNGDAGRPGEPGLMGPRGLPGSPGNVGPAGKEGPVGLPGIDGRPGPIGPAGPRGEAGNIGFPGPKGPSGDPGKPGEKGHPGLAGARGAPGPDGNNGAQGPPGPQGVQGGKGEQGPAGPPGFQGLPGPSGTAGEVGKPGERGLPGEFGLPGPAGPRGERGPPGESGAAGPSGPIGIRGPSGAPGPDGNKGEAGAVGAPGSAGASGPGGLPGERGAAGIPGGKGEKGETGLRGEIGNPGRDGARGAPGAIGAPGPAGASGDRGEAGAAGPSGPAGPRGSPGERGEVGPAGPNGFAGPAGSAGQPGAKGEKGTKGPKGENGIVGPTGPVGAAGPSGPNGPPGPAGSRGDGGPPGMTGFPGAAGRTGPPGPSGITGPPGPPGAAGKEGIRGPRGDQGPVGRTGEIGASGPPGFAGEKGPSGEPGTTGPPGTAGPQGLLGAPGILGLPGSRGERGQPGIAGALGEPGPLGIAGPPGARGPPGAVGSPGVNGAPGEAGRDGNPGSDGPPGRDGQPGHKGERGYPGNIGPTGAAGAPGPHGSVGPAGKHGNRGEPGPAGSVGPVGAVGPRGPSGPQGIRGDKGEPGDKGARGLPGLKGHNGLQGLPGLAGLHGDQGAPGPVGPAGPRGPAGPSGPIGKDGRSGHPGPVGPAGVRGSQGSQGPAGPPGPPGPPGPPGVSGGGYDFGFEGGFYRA
T1 sequence (P02454 152-1207 limits assumed): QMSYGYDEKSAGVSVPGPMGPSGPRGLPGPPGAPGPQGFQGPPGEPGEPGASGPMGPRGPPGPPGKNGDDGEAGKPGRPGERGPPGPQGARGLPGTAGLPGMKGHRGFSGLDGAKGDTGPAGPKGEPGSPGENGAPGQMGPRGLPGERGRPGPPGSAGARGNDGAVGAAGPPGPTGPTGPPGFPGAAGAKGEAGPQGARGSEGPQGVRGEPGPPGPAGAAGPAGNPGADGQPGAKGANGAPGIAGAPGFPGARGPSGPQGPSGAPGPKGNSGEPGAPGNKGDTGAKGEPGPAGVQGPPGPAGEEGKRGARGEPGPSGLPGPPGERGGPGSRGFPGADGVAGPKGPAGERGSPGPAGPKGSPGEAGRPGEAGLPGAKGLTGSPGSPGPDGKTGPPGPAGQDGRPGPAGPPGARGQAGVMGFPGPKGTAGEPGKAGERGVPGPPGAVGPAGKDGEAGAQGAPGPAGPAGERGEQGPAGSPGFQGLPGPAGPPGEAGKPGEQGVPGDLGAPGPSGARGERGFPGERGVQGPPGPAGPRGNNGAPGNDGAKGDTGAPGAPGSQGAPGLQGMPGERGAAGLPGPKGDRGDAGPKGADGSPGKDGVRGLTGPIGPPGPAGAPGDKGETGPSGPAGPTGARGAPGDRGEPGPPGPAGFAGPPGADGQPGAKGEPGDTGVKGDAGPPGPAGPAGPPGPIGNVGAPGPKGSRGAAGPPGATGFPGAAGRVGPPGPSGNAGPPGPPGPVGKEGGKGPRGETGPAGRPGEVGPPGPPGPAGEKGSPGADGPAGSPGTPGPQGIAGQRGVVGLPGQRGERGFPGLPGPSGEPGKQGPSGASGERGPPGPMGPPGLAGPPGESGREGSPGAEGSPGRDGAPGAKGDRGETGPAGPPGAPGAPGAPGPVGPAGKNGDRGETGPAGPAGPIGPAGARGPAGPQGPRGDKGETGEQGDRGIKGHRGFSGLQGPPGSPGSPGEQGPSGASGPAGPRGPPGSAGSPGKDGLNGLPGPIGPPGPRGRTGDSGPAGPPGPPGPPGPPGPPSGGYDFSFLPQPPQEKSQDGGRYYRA
Sequence of Collagen Type 1 solution from rat tail (3 mg/mL, C3867, Sigma-Aldrich) (P02454 152-1207 limits assumed, chain 1 of 2): as the sequence (P02454 152-1207 limits assumed) above
Sequence of Collagen Type 1 solution from rat tail (3 mg/mL, C3867, Sigma-Aldrich) (P02466 86-1125 limits assumed, chain 2 of 2): as the sequence (P02466 86-1125 limits assumed) above

| Mean fibril width (Type 1 rat tail collagen [2]) | average Ca—P ratio (Type 1 rat tail collagen [3]) | DMT (elastic) modulus (Type 1 rat tail collagen [4]; [7]) [GPa] | DMT (elastic) modulus (Type 1 rat tail collagen [4]; pre-mineralization) [GPa] | fibril width, Coefficient of variation, AFM topographical imaging [6] | fibril width, Standard Deviation, AFM topographical imaging [6] [nm] | Molecule | mineral formation morphology on SEM images (Type 1 rat tail collagen [3]) | also measured |
| --- | --- | --- | --- | --- | --- | --- | --- | --- |
| 129.9 nm and 129.90 nm | 1.41 | – | – | – | – | MLPHHGA [HABP1] | more extensively branched columnar mineral growth as well as plate-like mineral growth | MNRp 960/1460 ([1]; DCA class HABP1 Mineral II): 3.59; FMHW PO4^−3) ([1]; DCA class HABP1 Mineral II): 35.6; GMC 1078/960 ([1]; DCA class HABP1 Mineral II): 0.22; Ca-P/collagen 960/1667 ([1]; DCA class HABP1 Mineral II): 13.2; MNRp 960/1460 ([1]; DCA class HABP1 mineral I): 2.88; FMHW PO4^−3) ([1]; DCA class HABP1 mineral I): 39.6; GMC 1078/960 ([1]; DCA class HABP1 mineral I): 0.31; Ca-P/collagen 960/1667 ([1]; DCA class HABP1 mineral I): 23.9; mineralization shown with a RAMAN peak consistent with CaPO4 formation (960 cm^−1) ([1]; adhesive/dentin specimen, compared with mineralization procedure without peptide): mediates mineralization |
| 121.4 nm and 121.40 nm | 1.30 | 6.52 | 5.16 | – | – | TKKLTLRT [CBP] | branched columnar mineral growth | – |
| 82.37 nm | 1.25 | 5.83 | 5.25 | – | – | TKKLTLRTAPAMLPHHGA [CBP-HABP1] | more extensively branched columnar mineral growth as well as plate-like mineral growth | void areas in collagen interior (Type 1 rat tail collagen [5]): almost no void areas; density of mineralized collagen layer (Type 1 rat tail collagen [5]; versus collagen control): denser formation compared to ALP-based mineralized collagen samples |
| – | – | – | – | 32.1 | 26.5 | TKKLTLRTAPAMLPHHGA [bifunctional peptide TKKLTLRT-APA-MLPHHGA (CBP-HABP1)] | – | – |
| – | – | – | – | 67.5 | 87.6 | MLPHHGA-OH [hydroxyapatite-binding peptide (HABP1), MLPHHGA] | – | – |
| – | – | – | – | 17 | 20.7 | TKKLTLRT-OH [collagenase-collagen-binding peptide (CBP), TKKLTLRT] | – | – |
